Measurements taken from patent US20210332142A1 (Genentech, published 2021).
Read-outs that look alike come from different tables or passages of the source.

T1: recombinant cyno Tie2 extracellular domain (cynomolgus monkey, UniProt Q02763 23-748 (human entry))
T1 construct: also called Recombinant cyno Tie2 ECD; cy Tie2
T1 chain: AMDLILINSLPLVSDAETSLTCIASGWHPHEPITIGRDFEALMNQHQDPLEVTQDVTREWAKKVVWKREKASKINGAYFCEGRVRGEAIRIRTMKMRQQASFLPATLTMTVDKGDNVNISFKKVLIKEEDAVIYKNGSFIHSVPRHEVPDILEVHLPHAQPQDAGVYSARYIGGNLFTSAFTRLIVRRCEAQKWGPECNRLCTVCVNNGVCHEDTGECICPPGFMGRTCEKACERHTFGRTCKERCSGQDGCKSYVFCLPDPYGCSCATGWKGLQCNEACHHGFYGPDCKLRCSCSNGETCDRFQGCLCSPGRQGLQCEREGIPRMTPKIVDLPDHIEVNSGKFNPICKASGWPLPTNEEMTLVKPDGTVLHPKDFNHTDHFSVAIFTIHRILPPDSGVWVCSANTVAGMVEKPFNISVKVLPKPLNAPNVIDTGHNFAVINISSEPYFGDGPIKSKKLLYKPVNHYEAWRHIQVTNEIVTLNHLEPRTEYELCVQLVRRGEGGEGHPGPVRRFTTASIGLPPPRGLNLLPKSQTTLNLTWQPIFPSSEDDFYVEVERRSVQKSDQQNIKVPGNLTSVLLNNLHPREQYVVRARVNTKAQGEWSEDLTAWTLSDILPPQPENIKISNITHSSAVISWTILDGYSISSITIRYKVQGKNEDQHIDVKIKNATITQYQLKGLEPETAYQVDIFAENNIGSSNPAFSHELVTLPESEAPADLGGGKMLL

B1: Tie2.1.M100cA (antibody, IgG1, name in Kabat numbering, V domains shown)
VH: EVQLVESGGGLVQPGGSLRLSCAASGFTFSNTDISWVRQAPGKGLEWVGRISPSDGNTYYADSVKGRFTISADTSKNTAYLQMNSLRAEDTAVYYCARRTRWASWAADYWGQGTLVTVSS
VL: DIQMTQSPSSLSASVGDRVTITCRASQDVSTAVAWYQQKPGKAPKLLIYSASFLYSGVPSRFSGSGSGTDFTLTISSLQPEDFATYYCQQSYTTPPTFGQGTKVEIKR
notes: hIgG1
B2: Tie2.1.M100cC (antibody, IgG1, name in Kabat numbering, V domains shown)
VH: EVQLVESGGGLVQPGGSLRLSCAASGFTFSNTDISWVRQAPGKGLEWVGRISPSDGNTYYADSVKGRFTISADTSKNTAYLQMNSLRAEDTAVYYCARRTRWASWACDYWGQGTLVTVSS
VL: DIQMTQSPSSLSASVGDRVTITCRASQDVSTAVAWYQQKPGKAPKLLIYSASFLYSGVPSRFSGSGSGTDFTLTISSLQPEDFATYYCQQSYTTPPTFGQGTKVEIKR
notes: hIgG1
B3: Tie2.1.M100cG (antibody, IgG1, name in Kabat numbering, V domains shown)
VH: EVQLVESGGGLVQPGGSLRLSCAASGFTFSNTDISWVRQAPGKGLEWVGRISPSDGNTYYADSVKGRFTISADTSKNTAYLQMNSLRAEDTAVYYCARRTRWASWAGDYWGQGTLVTVSS
VL: DIQMTQSPSSLSASVGDRVTITCRASQDVSTAVAWYQQKPGKAPKLLIYSASFLYSGVPSRFSGSGSGTDFTLTISSLQPEDFATYYCQQSYTTPPTFGQGTKVEIKR
notes: hIgG1
B4: Tie2.1.M100cH (antibody, IgG1, name in Kabat numbering, V domains shown)
VH: EVQLVESGGGLVQPGGSLRLSCAASGFTFSNTDISWVRQAPGKGLEWVGRISPSDGNTYYADSVKGRFTISADTSKNTAYLQMNSLRAEDTAVYYCARRTRWASWAHDYWGQGTLVTVSS
VL: DIQMTQSPSSLSASVGDRVTITCRASQDVSTAVAWYQQKPGKAPKLLIYSASFLYSGVPSRFSGSGSGTDFTLTISSLQPEDFATYYCQQSYTTPPTFGQGTKVEIKR
notes: hIgG1
B5: Tie2.1.M100cI (antibody, IgG1, name in Kabat numbering, V domains shown)
VH: EVQLVESGGGLVQPGGSLRLSCAASGFTFSNTDISWVRQAPGKGLEWVGRISPSDGNTYYADSVKGRFTISADTSKNTAYLQMNSLRAEDTAVYYCARRTRWASWAIDYWGQGTLVTVSS
VL: DIQMTQSPSSLSASVGDRVTITCRASQDVSTAVAWYQQKPGKAPKLLIYSASFLYSGVPSRFSGSGSGTDFTLTISSLQPEDFATYYCQQSYTTPPTFGQGTKVEIKR
notes: hIgG1
B6: Tie2.1.M100cK (antibody, IgG1, name in Kabat numbering, V domains shown)
VH: EVQLVESGGGLVQPGGSLRLSCAASGFTFSNTDISWVRQAPGKGLEWVGRISPSDGNTYYADSVKGRFTISADTSKNTAYLQMNSLRAEDTAVYYCARRTRWASWAKDYWGQGTLVTVSS
VL: DIQMTQSPSSLSASVGDRVTITCRASQDVSTAVAWYQQKPGKAPKLLIYSASFLYSGVPSRFSGSGSGTDFTLTISSLQPEDFATYYCQQSYTTPPTFGQGTKVEIKR
notes: hIgG1
B7: Tie2.1.M100cL (antibody, IgG1, name in Kabat numbering, V domains shown)
VH: EVQLVESGGGLVQPGGSLRLSCAASGFTFSNTDISWVRQAPGKGLEWVGRISPSDGNTYYADSVKGRFTISADTSKNTAYLQMNSLRAEDTAVYYCARRTRWASWALDYWGQGTLVTVSS
VL: DIQMTQSPSSLSASVGDRVTITCRASQDVSTAVAWYQQKPGKAPKLLIYSASFLYSGVPSRFSGSGSGTDFTLTISSLQPEDFATYYCQQSYTTPPTFGQGTKVEIKR
notes: hIgG1
B8: Tie2.1.M100cN (antibody, IgG1, name in Kabat numbering, V domains shown)
VH: EVQLVESGGGLVQPGGSLRLSCAASGFTFSNTDISWVRQAPGKGLEWVGRISPSDGNTYYADSVKGRFTISADTSKNTAYLQMNSLRAEDTAVYYCARRTRWASWANDYWGQGTLVTVSS
VL: DIQMTQSPSSLSASVGDRVTITCRASQDVSTAVAWYQQKPGKAPKLLIYSASFLYSGVPSRFSGSGSGTDFTLTISSLQPEDFATYYCQQSYTTPPTFGQGTKVEIKR
notes: hIgG1
B9: Tie2.1.M100cP (antibody, IgG1, name in Kabat numbering, V domains shown)
VH: EVQLVESGGGLVQPGGSLRLSCAASGFTFSNTDISWVRQAPGKGLEWVGRISPSDGNTYYADSVKGRFTISADTSKNTAYLQMNSLRAEDTAVYYCARRTRWASWAPDYWGQGTLVTVSS
VL: DIQMTQSPSSLSASVGDRVTITCRASQDVSTAVAWYQQKPGKAPKLLIYSASFLYSGVPSRFSGSGSGTDFTLTISSLQPEDFATYYCQQSYTTPPTFGQGTKVEIKR
notes: hIgG1
B10: Tie2.1.M100cR (antibody, IgG1, name in Kabat numbering, V domains shown)
VH: EVQLVESGGGLVQPGGSLRLSCAASGFTFSNTDISWVRQAPGKGLEWVGRISPSDGNTYYADSVKGRFTISADTSKNTAYLQMNSLRAEDTAVYYCARRTRWASWARDYWGQGTLVTVSS
VL: DIQMTQSPSSLSASVGDRVTITCRASQDVSTAVAWYQQKPGKAPKLLIYSASFLYSGVPSRFSGSGSGTDFTLTISSLQPEDFATYYCQQSYTTPPTFGQGTKVEIKR
notes: hIgG1
B11: Tie2.1.M100cT (antibody, IgG1, name in Kabat numbering, V domains shown)
VH: EVQLVESGGGLVQPGGSLRLSCAASGFTFSNTDISWVRQAPGKGLEWVGRISPSDGNTYYADSVKGRFTISADTSKNTAYLQMNSLRAEDTAVYYCARRTRWASWATDYWGQGTLVTVSS
VL: DIQMTQSPSSLSASVGDRVTITCRASQDVSTAVAWYQQKPGKAPKLLIYSASFLYSGVPSRFSGSGSGTDFTLTISSLQPEDFATYYCQQSYTTPPTFGQGTKVEIKR
notes: hIgG1
B12: Tie2.1.M100cV (antibody, IgG1, name in Kabat numbering, V domains shown)
VH: EVQLVESGGGLVQPGGSLRLSCAASGFTFSNTDISWVRQAPGKGLEWVGRISPSDGNTYYADSVKGRFTISADTSKNTAYLQMNSLRAEDTAVYYCARRTRWASWAVDYWGQGTLVTVSS
VL: DIQMTQSPSSLSASVGDRVTITCRASQDVSTAVAWYQQKPGKAPKLLIYSASFLYSGVPSRFSGSGSGTDFTLTISSLQPEDFATYYCQQSYTTPPTFGQGTKVEIKR
notes: hIgG1
B13: Tie2.1.M100cW (antibody, IgG1, name in Kabat numbering, V domains shown)
VH: EVQLVESGGGLVQPGGSLRLSCAASGFTFSNTDISWVRQAPGKGLEWVGRISPSDGNTYYADSVKGRFTISADTSKNTAYLQMNSLRAEDTAVYYCARRTRWASWAWDYWGQGTLVTVSS
VL: DIQMTQSPSSLSASVGDRVTITCRASQDVSTAVAWYQQKPGKAPKLLIYSASFLYSGVPSRFSGSGSGTDFTLTISSLQPEDFATYYCQQSYTTPPTFGQGTKVEIKR
notes: hIgG1

Key:
Test in all cases: SPR, IgG captured, 37C
[1] = target: T1, recombinant cyno Tie2 extracellular …
Procedure: (§1) A human antibody capture chip was prepared using a Series S CM5 chip (GE Life Sciences), a human antibody capture kit (GE Life Sciences) and an amine coupling kit (GE Life Sciences). Antibodies diluted to 5 μg/ml in running buffer (10 mM HEPES, 150 mM NaCl, 0.05% Tween 20, 1 mM EDTA, pH 7.4) were non-covalently captured using a contact time of 20 seconds and a flow rate of 10 μl/minute. Binding to 300 nM and 1500 nM recombinant Tie2 was analyzed at 37° C. using a Single Cycle Kinetics method with a contact time of 60 seconds, a dissociation time of 120 seconds and a flow rate of 50 μl/min. Between cycles, the surface was regenerated by a 30 second injection of 3M MgCl₂ at a flow rate of 30 μl/min. Values for antibody capture levels and analyte binding levels were obtained from the Report Point Table (Biacore Evaluation Software v3.0, GE Life Sciences). […] Table 16: Experiment A; Table 17: Experiment B.

[2] = target: T2, recombinant human Tie2 extracellular domain (human, UniProt Q02763 23-748)
T2 construct: whole entry named; also called Recombinant human Tie2 ECD; hu Tie2
T2 sequence (Q02763 23-748 limits assumed): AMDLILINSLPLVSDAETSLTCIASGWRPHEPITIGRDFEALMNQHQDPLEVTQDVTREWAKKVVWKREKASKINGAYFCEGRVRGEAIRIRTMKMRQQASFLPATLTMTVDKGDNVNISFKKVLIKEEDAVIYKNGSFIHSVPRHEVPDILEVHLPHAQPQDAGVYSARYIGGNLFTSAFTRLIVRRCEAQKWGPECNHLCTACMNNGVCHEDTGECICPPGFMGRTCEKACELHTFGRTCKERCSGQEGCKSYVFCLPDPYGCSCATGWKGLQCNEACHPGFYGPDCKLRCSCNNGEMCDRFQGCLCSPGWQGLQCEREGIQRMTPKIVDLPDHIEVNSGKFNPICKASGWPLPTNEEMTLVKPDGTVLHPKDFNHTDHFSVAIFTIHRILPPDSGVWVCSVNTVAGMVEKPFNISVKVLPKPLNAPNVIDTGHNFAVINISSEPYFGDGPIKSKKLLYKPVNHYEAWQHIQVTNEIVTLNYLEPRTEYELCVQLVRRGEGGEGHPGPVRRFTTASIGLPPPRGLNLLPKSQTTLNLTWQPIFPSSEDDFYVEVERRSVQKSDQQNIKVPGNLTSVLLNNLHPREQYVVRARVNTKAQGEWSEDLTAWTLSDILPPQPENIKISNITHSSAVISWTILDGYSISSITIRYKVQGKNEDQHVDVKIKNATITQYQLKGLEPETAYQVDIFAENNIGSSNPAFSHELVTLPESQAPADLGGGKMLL
Procedure: as §1

[3] = target: T1, recombinant cyno Tie2 extracellular …
Procedure: as §1

[4] = target: T2, recombinant human Tie2 extracellular …; remark: listed apart in the source
Procedure: as §1

Binder | Normalized Binding Signal, 300 nM [1] | Normalized Binding Signal, 1500 nM [1] | Normalized Binding Signal, 300 nM [2] | Normalized Binding Signal, 1500 nM [2] | Normalized Binding Signal, 300 nM [3] | Normalized Binding Signal, 1500 nM [3] | Normalized Binding Signal, 300 nM [4] | Normalized Binding Signal, 1500 nM [4]
B1 | 0.03 | 0.13 | 0.03 | 0.14 |  |  |  | 
B2 | 0.1 | 0.35 | 0.11 | 0.37 |  |  |  | 
B3 | 0.05 | 0.2 | 0.06 | 0.21 |  |  |  | 
B4 | 0.1 | 0.36 | 0.11 | 0.39 |  |  |  | 
B5 | 0.03 | 0.13 | 0.03 | 0.14 | 0.03 | 0.12 | 0.04 | 0.14
B6 | 0.11 | 0.39 | 0.13 | 0.41 |  |  |  | 
B7 | 0.1 | 0.39 | 0.12 | 0.41 | 0.11 | 0.4 | 0.13 | 0.42
B8 | 0.1 | 0.36 | 0.11 | 0.38 |  |  |  | 
B9 | 0.02 | 0.1 | 0.02 | 0.11 |  |  |  | 
B10 | 0.05 | 0.2 | 0.06 | 0.22 |  |  |  | 
B11 | 0.02 | 0.09 | 0.02 | 0.1 |  |  |  | 
B12 | 0.04 | 0.15 | 0.04 | 0.16 |  |  |  | 
B13 | 0.07 | 0.29 | 0.08 | 0.31 |  |  |  | 
